Experimental data as given in patent US20220088148A1 (HANMI PHARM, published 2022).
Bridges are numbered along the chain shown (N, C = ends). Where no end group is shown, it is not given here. [ ]: non-standard residue; d: D form. The star is where a group is joined. Acetyl(2-(4-imidazolyl)) = O=C(Cc1c[nH]cn1)*; Aib = CC(C)(N)C(=O)O

Key:
Assay in all cases: cell-based or functional assay
[1] = biological target: human GLP-1 receptor (human, UniProt P43220 24-463)
[2] = biological target: human GCG receptor (human, UniProt P47871 26-477)
human GCG receptor, sequence (P47871 26-477): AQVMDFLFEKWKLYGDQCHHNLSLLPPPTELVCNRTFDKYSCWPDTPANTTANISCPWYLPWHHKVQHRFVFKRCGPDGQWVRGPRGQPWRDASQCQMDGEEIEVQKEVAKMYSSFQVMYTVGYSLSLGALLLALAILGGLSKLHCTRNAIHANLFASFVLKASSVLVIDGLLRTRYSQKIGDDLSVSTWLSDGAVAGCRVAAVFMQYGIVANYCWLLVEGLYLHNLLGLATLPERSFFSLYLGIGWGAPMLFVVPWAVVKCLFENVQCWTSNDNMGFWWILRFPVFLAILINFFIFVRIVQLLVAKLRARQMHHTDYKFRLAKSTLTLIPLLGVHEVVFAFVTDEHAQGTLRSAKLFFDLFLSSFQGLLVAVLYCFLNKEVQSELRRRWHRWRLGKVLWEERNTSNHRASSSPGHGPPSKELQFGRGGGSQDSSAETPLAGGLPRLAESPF

[3] = biological target: T1, human GIP receptor (human, UniProt P48546 22-466)
T1 sequence (looked up): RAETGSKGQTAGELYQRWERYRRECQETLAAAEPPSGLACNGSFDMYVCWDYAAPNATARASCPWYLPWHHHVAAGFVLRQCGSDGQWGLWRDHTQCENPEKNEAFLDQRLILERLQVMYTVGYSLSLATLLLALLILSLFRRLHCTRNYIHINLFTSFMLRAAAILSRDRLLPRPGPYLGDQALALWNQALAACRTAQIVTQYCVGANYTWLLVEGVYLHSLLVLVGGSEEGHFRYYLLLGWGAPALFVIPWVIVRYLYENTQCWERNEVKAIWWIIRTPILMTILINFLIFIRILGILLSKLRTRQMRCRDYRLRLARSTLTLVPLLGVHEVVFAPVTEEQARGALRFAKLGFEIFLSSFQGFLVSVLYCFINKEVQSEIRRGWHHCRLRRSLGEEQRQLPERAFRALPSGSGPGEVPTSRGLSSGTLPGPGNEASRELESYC

Row | Binder | In vitro activity (%) vs. GLP-1, cAMP EC50 [1] [%] | In vitro activity (%) vs. Glucagon, cAMP EC50 [2] [%] | In vitro activity (%) vs. GIP, cAMP EC50 [3] [%]
1 | H[Aib]EGTFTSDYSIAMDEIHQKDFVNWLLAQC (bridge 16-20) [triple agonist of SEQ ID NO: 53] | 161 | 8.4 | 1.3
2 | HGQGTFTSDCSKQLDGQAAQEFVAWLLAGGPSSGAPPPS [triple agonist of SEQ ID NO: 44] | 1.3 | < 0.1 | < 0.1
3 | HGQGTFTSDCSKYMDGQAAQDFVAWLLAGGPSSGAPPPS [triple agonist of SEQ ID NO: 45] | 6.6 | < 0.1 | < 0.1
4 | HGQGTFTSDCSKYLDGQRAQEFVAWLLAGGPSSGAPPPS [triple agonist of SEQ ID NO: 47] | 2.4 | < 0.1 | < 0.1
5 | HGQGTFTSDCSKYLDEQHAQEFVAWLLAGGPSSGAPPPS [triple agonist of SEQ ID NO: 46] | 1.4 | < 0.1 | < 0.1
6 | HGQGTFTSDCSKYLDGQRAQDFVNWLLAGGPSSGAPPPS [triple agonist of SEQ ID NO: 48] | 1.5 | < 0.1 | < 0.1
7 | H[Aib]QGTFTSDYSKYLDEKRQKEFVNWLLAQKC (bridge 16-20) [triple agonist of SEQ ID NO: 34] | 19.1 | 0.92 | 0.6
8 | H[Aib]QGTFTSDYSKYLDEKRQKEFVQWLLNTC (bridge 16-20; ends not checked) [triple agonist of SEQ ID NO: 51] | 14.4 | 2 | 0.1
9 | H[Aib]QGTFTSDVSSYLDGQAAKEFVAWLLKGC (ends and bridges not checked) [triple agonist of SEQ ID NO: 6] | 17 | < 0.1 | < 0.1
10 | H[Aib]EGTFTSDYSIAMDEIHQKDFVDWLLAEC (bridge 16-20; ends not checked) [triple agonist of SEQ ID NO: 54] | 30.6 | 1.4 | 0.1
11 | H[Aib]QGTFTSDVSKYLDGQAAKEFVAWLLKGC (ends and bridges not checked) [triple agonist of SEQ ID NO: 7] | 13.7 | < 0.1 | < 0.1
12 | Y[Aib]QGTFTSDYSKYLDEKRAKEFVQWLLDHHCSSGQPPPS (bridge 16-20) [triple agonist of SEQ ID NO: 43] | 12.6 | 88.4 | 3.7
13 | H[Aib]QGTFTSDVSSYLDGQAAKEFIAWLVKGC [triple agonist of SEQ ID NO: 1] | 3.2 | < 0.1 | < 0.1
14 | Y[Aib]QGTFTSDYSKYLDEKRAKEFVQWLLDHHPSSGQPPPSC (bridge 16-20) [triple agonist of SEQ ID NO: 42] | 33.9 | 206 | 7.8
15 | [Acetyl(2-(4-imidazolyl))][Aib]QGTFTSDYSICMDEKHQKDFVNWLLNTK (bridge 16-20; ends not checked) [triple agonist of SEQ ID NO: 59] | 40.3 | < 0.1 | 4
16 | H[Aib]QGTFTSDYSIAMDEIHQKDFVNWLLAQC (bridge 16-20) [triple agonist of SEQ ID NO: 55] | 27.1 | 0.7 | 2.4
17 | H[Aib]QGTFTSDVSSYLLGQQQKEFIAWLVKGGGPSSGAPPPSC [triple agonist of SEQ ID NO: 5] | 42.1 | < 0.1 | < 0.1
18 | [Acetyl(2-(4-imidazolyl))][Aib]QGTFTSDYSIAMDEKHCKDFVNWLLNTK (bridge 16-20; ends not checked) [triple agonist of SEQ ID NO: 60] | 106 | < 0.1 | 8.2
19 | H[Aib]QGTFTSDVSSYLLGQQQKEFIAWLVKGC [triple agonist of SEQ ID NO: 4] | 8.5 | < 0.1 | < 0.1
20 | H[Aib]QGTFTSDYSKYLDEKRAKEFVQWLLDHHPSSGQPPPSC (bridge 16-20; ends not checked) [triple agonist of SEQ ID NO: 50] | 67.4 | 50.5 | 2.7
21 | H[Aib]QGTFTSDYSKYLDEKRQKEFVQWLLNTKC (bridge 16-20; ends not checked) [triple agonist of SEQ ID NO: 58] | 39.1 | 2.6 | 0.2
22 | H[Aib]QGTFTSDYSKYLDEKRQKEFVQWLLDTC (bridge 16-20; ends not checked) [triple agonist of SEQ ID NO: 52] | 44.1 | 7.5 | 0.3
23 | H[Aib]QGTFTSDYSKCLDEKRAKEFVQWLLDHHPSSGQPPPS (bridge 16-20; ends not checked) [triple agonist of SEQ ID NO: 65] | 95.4 | 25.2 | 11.6
24 | Y[Aib]QGTFTSDYSKYLDECAAKEFVQWLLDHHPSSGQPPPS (bridge 16-20; ends not checked) [triple agonist of SEQ ID NO: 64] | 64.6 | 60.1 | 92.9
25 | {Acetyl(2-(4-imidazolyl))}-[Aib]QGTFTSDYSICMDEIHQKDFVNWLLNTK (bridge 15-19) [triple agonist of SEQ ID NO: 49] | 29.8 | < 0.1 | 3.3
26 | H[Aib]QGTFTSDYSIAMDEIHQKDFVNWLLNTKC (bridge 16-20) [triple agonist of SEQ ID NO: 35] | 7.5 | < 0.1 | 1.3
27 | H[Aib]QGTFTSDYSIAMDEIHQKDFVNWLLNTC (bridge 16-20; ends not checked) [triple agonist of SEQ ID NO: 57] | 11.7 | < 0.1 | 0.3
28 | [Acetyl(2-(4-imidazolyl))][Aib]QGTFTSDYSIAMDEIACKDFVNWLLNTK (bridge 16-20; ends not checked) [triple agonist of SEQ ID NO: 61] | 59.8 | < 0.1 | 2.8
